The target of test [1] is human glucagon receptor (human) (UniProt P47871). Kind of test: cell-based or functional assay.
The target in test [2] is human GLP-1 receptor (human) (UniProt P43220). Kind of test: cell-based or functional assay.
For test [3], the target named is T1, human glucagon receptor (human, UniProt P47871 26-477). Kind of test: cell-based or functional assay.
The target in test [4] is T1, human glucagon receptor. Kind of test: cell-based or functional assay. This is another data set of the same source.
For test [5], the target named is T1, human glucagon receptor. Kind of test: SPA competition vs 125I-glucagon, receptor membranes.
Test [6] concerns the target T2, human GLP-1 receptor (human, UniProt P43220 24-463). Kind of test: cell-based or functional assay.
Test [7] has as its target T1, human glucagon receptor. Kind of test: cell-based or functional assay. This is another data set of the same source.
Test [8] deals with T2, human GLP-1 receptor. Kind of test: cell-based or functional assay. This is another data set of the same source.
Test [9] has as its target T2, human GLP-1 receptor. Kind of test: cell-based or functional assay. This is another data set of the same source.
The target of test [10] is T1, human glucagon receptor. Kind of test: cell-based or functional assay. The source holds these as a separate data set.
Test [11] addresses T1, human glucagon receptor. Kind of test: cell-based or functional assay. This is another data set of the same source.
The target of test [12] is T2, human GLP-1 receptor. Kind of test: cell-based or functional assay. The source holds these as a separate data set.
The target in test [13] is T1, human glucagon receptor. Kind of test: cell-based or functional assay. This is another data set of the same source.
The target in test [14] is T1, human glucagon receptor. Kind of test: SPA competition vs 125I-glucagon, receptor membranes. This is another data set of the same source.
Test [15] has as its target T1, human glucagon receptor. Kind of test: cell-based or functional assay. This is another data set of the same source.
The target of test [16] is T2, human GLP-1 receptor. Kind of test: cell-based or functional assay. This is another data set of the same source.
Test [17] has as its target T1, human glucagon receptor. Kind of test: cell-based or functional assay. This is another data set of the same source.

Where two headings read alike, the source gives them in different places. Bridge positions count the residues as written; N and C are the ends. Square brackets hold non-standard residues; d marks the D form. Ends that are not written are not given here. * marks the point of attachment. COCH2CH2S‑Chol = CC(C)CCC[C@@H](C)[C@H]1CC[C@H]2[C@@H]3CC=C4C[C@@H](SCCC(=O)*)CC[C@]4(C)[C@H]3CC[C@]12C; Abu(4-SO3H) = N[C@@H](CCS(=O)(=O)O)C(=O)O; PhLac = O=C(O)[C@@H](O)Cc1ccccc1; Aib = CC(C)(N)C(=O)O

Sequence of human GLP-1 receptor (human) (P43220 24-463): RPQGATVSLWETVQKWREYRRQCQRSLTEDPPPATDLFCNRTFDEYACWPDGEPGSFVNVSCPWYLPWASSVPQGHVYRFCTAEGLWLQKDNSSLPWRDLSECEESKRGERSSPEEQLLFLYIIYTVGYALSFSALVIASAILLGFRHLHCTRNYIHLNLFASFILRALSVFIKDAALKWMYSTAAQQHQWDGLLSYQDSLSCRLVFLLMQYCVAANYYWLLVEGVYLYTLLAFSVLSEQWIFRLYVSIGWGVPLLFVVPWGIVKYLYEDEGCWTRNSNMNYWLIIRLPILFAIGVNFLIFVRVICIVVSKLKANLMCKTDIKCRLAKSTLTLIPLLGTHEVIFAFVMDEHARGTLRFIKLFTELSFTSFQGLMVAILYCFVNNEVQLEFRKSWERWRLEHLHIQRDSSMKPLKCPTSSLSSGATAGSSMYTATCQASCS
Sequence of human glucagon receptor (human) (P47871 26-477): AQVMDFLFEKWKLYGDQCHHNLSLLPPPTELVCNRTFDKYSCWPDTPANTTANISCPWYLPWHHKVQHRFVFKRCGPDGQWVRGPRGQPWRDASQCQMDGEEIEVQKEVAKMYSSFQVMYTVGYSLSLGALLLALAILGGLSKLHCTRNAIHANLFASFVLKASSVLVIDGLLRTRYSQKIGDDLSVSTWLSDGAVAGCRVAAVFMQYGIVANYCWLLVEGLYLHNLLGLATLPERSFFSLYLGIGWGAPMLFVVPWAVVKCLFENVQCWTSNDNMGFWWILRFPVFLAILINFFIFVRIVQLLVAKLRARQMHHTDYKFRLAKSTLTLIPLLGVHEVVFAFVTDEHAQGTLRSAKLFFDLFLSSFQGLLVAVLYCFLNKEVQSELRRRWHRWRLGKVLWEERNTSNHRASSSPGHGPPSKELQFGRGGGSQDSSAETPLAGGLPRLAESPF
T1 sequence (P47871 26-477): as above

Turning to [E9, E16K20(lactam)]G(6-39) (peptide), in [1], the Glu IC50 is 42 nM, the Glucagon IC50 turned out to be 42 nM and the Glucagon antagonism IC50 (inhibit 0.2-0.8 nM glucagon) was determined as 42 nM. In test [2], this molecule showed a GLP-1 EC50 of 36 nM and a GLP-1 agonism EC50 of 36.4 nM.

Regarding [E9, E16, K20] G(6-39) (peptide), the GLP-1 agonism EC50 in test [2] came out at 1040 nM.

Regarding “[d-Cys^5(20kDaPEG), E^9]Glucagon(aa5-29)-NH2 (peptide)”, the IC50 (cAMP, inhibit 0.2 mM Glucagon) in test [3] is 14800 nM.

In general, IC50 refers to the point on the concentration scale where inhibition reaches its midpoint. The low end stands for greater potency in that assay, the high end for weaker potency in that assay. For the molecule SQGTFTS[Abu(4-SO3H)]YSKYLDSRRAQDFVQWLMNT-NH2 [[hCys^9(SO3H)]Glucagon(aa2-29)-NH2], the “cAMP IC50” value in test [4] came to 147 nM. Further, the IC50 in [5] was found to be 13.2 nM.

B1: [G4T5, E9, E16K20(Lactam), D28] G(4-29) (peptide)
peptide: GTFTSEYSKYLDERRAKDFVQWLMDT-NH2
modifications: lactam 13-17; N-terminus assumed
SMILES: CSCC[C@H](NC(=O)[C@H](CC(C)C)NC(=O)[C@H](Cc1c[nH]c2ccccc12)NC(=O)[C@H](CCC(N)=O)NC(=O)[C@@H](NC(=O)[C@H](Cc1ccccc1)NC(=O)[C@H](CC(=O)O)NC(=O)[C@@H]1CCCCNC(=O)CC[C@H](NC(=O)[C@H](CC(=O)O)NC(=O)[C@H](CC(C)C)NC(=O)[C@H](Cc2ccc(O)cc2)NC(=O)[C@H](CCCCN)NC(=O)[C@H](CO)NC(=O)[C@H](Cc2ccc(O)cc2)NC(=O)[C@H](CCC(=O)O)NC(=O)[C@H](CO)NC(=O)[C@@H](NC(=O)[C@H](Cc2ccccc2)NC(=O)[C@@H](NC(=O)CN)[C@@H](C)O)[C@@H](C)O)C(=O)N[C@@H](CCCNC(=N)N)C(=O)N[C@@H](CCCNC(=N)N)C(=O)N[C@@H](C)C(=O)N1)C(C)C)C(=O)N[C@@H](CC(=O)O)C(=O)N[C@H](C(N)=O)[C@@H](C)O
Take B1: the “GLP-1 agonism EC50” value in [6] was 151 nM. In addition, the “Glucagon antagonism IC50 (inhibit 0.8 nM glucagon)” value in test [7] worked out at 12.7 nM. In addition, the “GLP-1 EC50” value in [8] amounted to 151 nM.

B2: [H1A2E3, E9, E16K20(Lactam), D28]G(1-29) (peptide)
peptide: HAEGTFTSEYSKYLDERRAKDFVQWLMDT-NH2
modifications: lactam 16-20; N-terminus assumed
SMILES: CSCC[C@H](NC(=O)[C@H](CC(C)C)NC(=O)[C@H](Cc1c[nH]c2ccccc12)NC(=O)[C@H](CCC(N)=O)NC(=O)[C@@H](NC(=O)[C@H](Cc1ccccc1)NC(=O)[C@H](CC(=O)O)NC(=O)[C@@H]1CCCCNC(=O)CC[C@H](NC(=O)[C@H](CC(=O)O)NC(=O)[C@H](CC(C)C)NC(=O)[C@H](Cc2ccc(O)cc2)NC(=O)[C@H](CCCCN)NC(=O)[C@H](CO)NC(=O)[C@H](Cc2ccc(O)cc2)NC(=O)[C@H](CCC(=O)O)NC(=O)[C@H](CO)NC(=O)[C@@H](NC(=O)[C@H](Cc2ccccc2)NC(=O)[C@@H](NC(=O)CNC(=O)[C@H](CCC(=O)O)NC(=O)[C@H](C)NC(=O)[C@@H](N)Cc2c[nH]cn2)[C@@H](C)O)[C@@H](C)O)C(=O)N[C@@H](CCCNC(=N)N)C(=O)N[C@@H](CCCNC(=N)N)C(=O)N[C@@H](C)C(=O)N1)C(C)C)C(=O)N[C@@H](CC(=O)O)C(=O)N[C@H](C(N)=O)[C@@H](C)O
With B2, the “GLP-1 agonism EC50” value in [9], in [6] and in [12] was 0.11 nM in each case. Besides, the “Glucagon antagonism IC50 (inhibit 0.8 nM glucagon)” value in test [10] and in test [7] was 129 nM each time. For the same molecule, the “GLP-1 EC50” value in test [8] was 0.2 nM. For the same molecule, in test [11], the “Glucagon IC50” value was determined as 130 nM. Moreover, the “Glucagon antagonism IC50 (inhibit 0.2-0.8 nM glucagon)” value in test [13] turned out to be 129 nM.

B3: [hCys^9(SO3H)]Glucagon(aa6-29)-NH2 (peptide)
peptide: FTS[Abu(4-SO3H)]YSKYLDSRRAQDFVQWLMNT-NH2
notes: also called [hCys(SO3)9]Glucagon(aa6-29)-NH2
Take B3: the IC50 in test [14] and in [5] was 59.1 nM throughout. Besides, the “cAMP IC50” value in test [4] and in test [15] was 133 nM in each case. The “cAMP pA2” value in [4] and in test [15] was 7.16 each time.

Consider [Aib]EGT[PhLac]TSDYSKYLDERRAKDFVQWLMDT-NH2 (lactam 15-19; also: PLA6 linked to Thr5 by an ester bond (depsipeptide)) [Aib depsi lactam G(2-29)], for which the “GLP-1 agonism EC50” value in [16] is 5.83 nM. The “Glucagon antagonism IC50 (inhibit 0.4 nM glucagon)” value in [17] was 11.8 nM.

B4: K10-chol G(6-29) (peptide)
peptide: [PhLac]TSDK(COCH2CH2S‑Chol)SKYLDERRAKDFVQWLMDT-NH2
modifications: lactam 11-15; N-terminus assumed
SMILES: CSCC[C@H](NC(=O)[C@H](CC(C)C)NC(=O)[C@H](Cc1c[nH]c2ccccc12)NC(=O)[C@H](CCC(N)=O)NC(=O)[C@@H](NC(=O)[C@H](Cc1ccccc1)NC(=O)[C@H](CC(=O)O)NC(=O)[C@@H]1CCCCNC(=O)CC[C@H](NC(=O)[C@H](CC(=O)O)NC(=O)[C@H](CC(C)C)NC(=O)[C@H](Cc2ccc(O)cc2)NC(=O)[C@H](CCCCN)NC(=O)[C@H](CO)NC(=O)[C@H](CCCCNC(=O)CCS[C@H]2CC[C@@]3(C)C(=CC[C@H]4[C@@H]5CC[C@H]([C@H](C)CCCC(C)C)[C@@]5(C)CC[C@@H]43)C2)NC(=O)[C@H](CC(=O)O)NC(=O)[C@H](CO)NC(=O)[C@@H](NC(=O)[C@@H](O)Cc2ccccc2)[C@@H](C)O)C(=O)N[C@@H](CCCNC(=N)N)C(=O)N[C@@H](CCCNC(=N)N)C(=O)N[C@@H](C)C(=O)N1)C(C)C)C(=O)N[C@@H](CC(=O)O)C(=O)N[C@H](C(N)=O)[C@@H](C)O
On to B4, for which the “GLP-1 agonism EC50” value in test [16] was 35.2 nM. In [17], the “Glucagon antagonism IC50 (inhibit 0.4 nM glucagon)” value was found to be 271 nM.

B5: [hCys^9(SO3H)]Glucagon(aa4-29)-NH2 (peptide)
peptide: GTFTS[Abu(4-SO3H)]YSKYLDSRRAQDFVQWLMNT-NH2
modifications: N-terminus assumed
SMILES: CSCC[C@H](NC(=O)[C@H](CC(C)C)NC(=O)[C@H](Cc1c[nH]c2ccccc12)NC(=O)[C@H](CCC(N)=O)NC(=O)[C@@H](NC(=O)[C@H](Cc1ccccc1)NC(=O)[C@H](CC(=O)O)NC(=O)[C@H](CCC(N)=O)NC(=O)[C@H](C)NC(=O)[C@H](CCCNC(=N)N)NC(=O)[C@H](CCCNC(=N)N)NC(=O)[C@H](CO)NC(=O)[C@H](CC(=O)O)NC(=O)[C@H](CC(C)C)NC(=O)[C@H](Cc1ccc(O)cc1)NC(=O)[C@H](CCCCN)NC(=O)[C@H](CO)NC(=O)[C@H](Cc1ccc(O)cc1)NC(=O)[C@H](CCS(=O)(=O)O)NC(=O)[C@H](CO)NC(=O)[C@@H](NC(=O)[C@H](Cc1ccccc1)NC(=O)[C@@H](NC(=O)CN)[C@@H](C)O)[C@@H](C)O)C(C)C)C(=O)N[C@@H](CC(N)=O)C(=O)N[C@H](C(N)=O)[C@@H](C)O
Take B5: in test [4], the “cAMP IC50” value is 68.4 nM and the “cAMP pA2” value was determined as 7.22. In test [5], this molecule registered an IC50 of 41.5 nM.

B6: [hCys^9(SO3H)]Glucagon(aa5-29)-NH2 (peptide)
peptide: TFTS[Abu(4-SO3H)]YSKYLDSRRAQDFVQWLMNT-NH2
modifications: N-terminus assumed
SMILES: CSCC[C@H](NC(=O)[C@H](CC(C)C)NC(=O)[C@H](Cc1c[nH]c2ccccc12)NC(=O)[C@H](CCC(N)=O)NC(=O)[C@@H](NC(=O)[C@H](Cc1ccccc1)NC(=O)[C@H](CC(=O)O)NC(=O)[C@H](CCC(N)=O)NC(=O)[C@H](C)NC(=O)[C@H](CCCNC(=N)N)NC(=O)[C@H](CCCNC(=N)N)NC(=O)[C@H](CO)NC(=O)[C@H](CC(=O)O)NC(=O)[C@H](CC(C)C)NC(=O)[C@H](Cc1ccc(O)cc1)NC(=O)[C@H](CCCCN)NC(=O)[C@H](CO)NC(=O)[C@H](Cc1ccc(O)cc1)NC(=O)[C@H](CCS(=O)(=O)O)NC(=O)[C@H](CO)NC(=O)[C@@H](NC(=O)[C@H](Cc1ccccc1)NC(=O)[C@@H](N)[C@@H](C)O)[C@@H](C)O)C(C)C)C(=O)N[C@@H](CC(N)=O)C(=O)N[C@H](C(N)=O)[C@@H](C)O
Take B6: in [4], the “cAMP IC50” value turned out to be 98.3 nM and the “cAMP pA2” value turned out to be 6.77. Further, in [5], the IC50 came to 33.9 nM.

B7: K30-chol G(6-30) (peptide)
peptide: [PhLac]TSDYSKYLDERRAKDFVQWLMDTK(COCH2CH2S‑Chol)-NH2
modifications: lactam 11-15; N-terminus assumed
SMILES: CSCC[C@H](NC(=O)[C@H](CC(C)C)NC(=O)[C@H](Cc1c[nH]c2ccccc12)NC(=O)[C@H](CCC(N)=O)NC(=O)[C@@H](NC(=O)[C@H](Cc1ccccc1)NC(=O)[C@H](CC(=O)O)NC(=O)[C@@H]1CCCCNC(=O)CC[C@H](NC(=O)[C@H](CC(=O)O)NC(=O)[C@H](CC(C)C)NC(=O)[C@H](Cc2ccc(O)cc2)NC(=O)[C@H](CCCCN)NC(=O)[C@H](CO)NC(=O)[C@H](Cc2ccc(O)cc2)NC(=O)[C@H](CC(=O)O)NC(=O)[C@H](CO)NC(=O)[C@@H](NC(=O)[C@@H](O)Cc2ccccc2)[C@@H](C)O)C(=O)N[C@@H](CCCNC(=N)N)C(=O)N[C@@H](CCCNC(=N)N)C(=O)N[C@@H](C)C(=O)N1)C(C)C)C(=O)N[C@@H](CC(=O)O)C(=O)N[C@H](C(=O)N[C@@H](CCCCNC(=O)CCS[C@H]1CC[C@@]2(C)C(=CC[C@H]3[C@@H]4CC[C@H]([C@H](C)CCCC(C)C)[C@@]4(C)CC[C@@H]32)C1)C(N)=O)[C@@H](C)O
As for B7, in test [16], the “GLP-1 agonism EC50” value turned out to be 14.4 nM. The “Glucagon antagonism IC50 (inhibit 0.4 nM glucagon)” value in [17] worked out at 575 nM.

(Values after patent US20110098217A1 (INDIANA UNIVERSITY RESEARCH AND TECHNOLOGY, published 2011).)
